Target: PCNA N107C labeled with Cy5 (human) (UniProt P12004)
Assay: native gel or EMSA; protein-protein EMSA in solution, no DNA: 1 nM PCNA-Cy5 with increasing Polδ Exo^− or Lig1, 20 min at RT, 6% non-denaturing TBE-PAGE; bound PCNA fitted to a quadratic isotherm

PCNA N107C labeled with Cy5 (human), sequence (P12004 whole entry N107C): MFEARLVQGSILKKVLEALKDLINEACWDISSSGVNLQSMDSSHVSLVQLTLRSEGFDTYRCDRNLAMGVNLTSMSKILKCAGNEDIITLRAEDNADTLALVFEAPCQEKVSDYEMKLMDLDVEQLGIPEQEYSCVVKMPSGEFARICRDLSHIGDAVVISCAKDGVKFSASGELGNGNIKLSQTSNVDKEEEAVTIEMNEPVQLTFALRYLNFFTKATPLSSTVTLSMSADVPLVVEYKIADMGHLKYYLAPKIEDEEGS

## Polδ Exo^− (D515V in p125) (from UniProt P28340 1-1107; Q9HCU8 1-107) (complex)
  Kd: 15 nM
